From US7381413

Biological target: Fas (CD95) on L1210 and L1210/DDP cells (UniProt P25446)
Assay: cell-based or functional assay

Chain of UniProt P25446 (P25446 22-327 limits assumed): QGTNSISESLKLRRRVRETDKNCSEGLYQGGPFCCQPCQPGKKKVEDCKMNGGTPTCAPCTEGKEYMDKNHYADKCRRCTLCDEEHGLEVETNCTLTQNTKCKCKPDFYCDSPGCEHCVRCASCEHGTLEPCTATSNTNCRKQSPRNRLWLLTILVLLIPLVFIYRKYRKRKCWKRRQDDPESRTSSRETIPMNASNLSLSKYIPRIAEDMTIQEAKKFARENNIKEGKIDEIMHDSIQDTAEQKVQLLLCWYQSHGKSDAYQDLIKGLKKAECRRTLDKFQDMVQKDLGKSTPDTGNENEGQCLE

- % dead cells over background of untreated cells, L1210/0 on anti-Fas coated plates: 80%
- % dead cells over background of untreated cells, L1210/DDP on anti-Fas coated plates: 46.6%
Substance: anti-Fas antibody Jo2.2 (Pharmingen)
